# Measured values published in patent US20050064507.
# Key:
# [1] = system: T1, EBNA1BP2 peptide KRPGKKGSNKRPGKR (SEQ ID NO:112)
# T1 sequence: KRPGKKGSNKRPGKR
# [2] = system: T2, CREB1 peptide EILSRRPSYRKILND (SEQ ID NO:106)
# T2 sequence: EILSRRPSYRKILND
# [3] = system: T3, DGKI peptide NRKKKRTSFKRKA (SEQ ID NO:79)
# T3 sequence: NRKKKRTSFKRKA
# [4] = system: T4, SPTBN4 peptide EGGDRRASGRRK (SEQ ID NO:110)
# T4 sequence: EGGDRRASGRRK
# [5] = system: T5, SDPR peptide EKIKRSSLKKVDSLKK (SEQ ID NO:104)
# T5 sequence: EKIKRSSLKKVDSLKK
# [6] = system: T6, PSCD2 peptide AARKKRISVKKKQEQ (SEQ ID NO:93)
# T6 sequence: AARKKRISVKKKQEQ
# [7] = system: T7, p164-RhoGEF peptide PRLIRRGSKKRPAR (SEQ ID NO:82)
# T7 sequence: PRLIRRGSKKRPAR
# [8] = system: T8, NEURL peptide ALRRPSLRREADD (SEQ ID NO:105)
# T8 sequence: ALRRPSLRREADD
# [9] = system: T9, SYTL4 peptide RQGKRKTSIKRDTVNPL (SEQ ID NO:87)
# T9 sequence: RQGKRKTSIKRDTVNPL
# [10] = system: T10, PRKCA peptide RFARKGSLRQKNV (SEQ ID NO:85)
# T10 sequence: RFARKGSLRQKNV
# [11] = system: T11, ASIP peptide KKRSSKKEASMKKVVRP (SEQ ID NO:97)
# T11 sequence: KKRSSKKEASMKKVVRP
# [12] = system: T12, GABRB2 peptide QKKSRLRRRASQLKI (SEQ ID NO:84)
# T12 sequence: QKKSRLRRRASQLKI
# [13] = system: T13, NF1 peptide AGSFKRNSIKKIV (SEQ ID NO:102)
# T13 sequence: AGSFKRNSIKKIV
# [14] = system: T14, KCNH2 peptide RQRKRKLSFRRRTDKD (SEQ ID NO:86)
# T14 sequence: RQRKRKLSFRRRTDKD
# [15] = system: T15, ARHGAP6 peptide DGQKRKKSLRKKLD (SEQ ID NO:92)
# T15 sequence: DGQKRKKSLRKKLD
# [16] = system: T16, LIMK2 peptide KATTKKRTLRKNDRK (SEQ ID NO:108)
# T16 sequence: KATTKKRTLRKNDRK
# [17] = system: T17, DGKZ peptide KKKKRASFKRKSSKKG (SEQ ID NO:77)
# T17 sequence: KKKKRASFKRKSSKKG
# [18] = system: T18, MACMARCKS peptide KKPFKLSGLSFKRNRKE (SEQ ID NO:88)
# T18 sequence: KKPFKLSGLSFKRNRKE
# [19] = system: T19, PARIS1 peptide EYLERRASRRRAV (SEQ ID NO:89)
# T19 sequence: EYLERRASRRRAV
# [20] = system: T20, MARCKS peptide KKKRFSFKKSFKLSGFSFKK (SEQ ID NO:111)
# T20 sequence: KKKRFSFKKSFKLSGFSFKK
# [21] = system: T21, FLJ20574 peptide GENVLKKSMKSRVKG (SEQ ID NO:113)
# T21 sequence: GENVLKKSMKSRVKG
# [22] = system: T22, PRKCM peptide VHYTSKDTLRKRHYWR (SEQ ID NO:91)
# T22 sequence: VHYTSKDTLRKRHYWR
# [23] = system: T23, ERN1 peptide KLAVGRHSFSRRSGV (SEQ ID NO:94)
# T23 sequence: KLAVGRHSFSRRSGV
# [24] = system: T24, NCF1 peptide GAPPRRSSIRNAH (SEQ ID NO:101)
# T24 sequence: GAPPRRSSIRNAH
# [25] = system: T25, MYBPC3 peptide LLKKRDSFRTPRDSKLE (SEQ ID NO:103)
# T25 sequence: LLKKRDSFRTPRDSKLE
# [26] = system: T26, MAP3K14 peptide WKGKRRSKARKKRK (SEQ ID NO:100)
# T26 sequence: WKGKRRSKARKKRK
# [27] = system: T27, NR4A3 peptide KEVVRTDSLKGRRGR (SEQ ID NO:109)
# T27 sequence: KEVVRTDSLKGRRGR
# [28] = system: T28, PPP1R14A peptide QKRHARVTVKYDRRE (SEQ ID NO:107)
# T28 sequence: QKRHARVTVKYDRRE
# [29] = system: T29, CACNA1C peptide RGFLRSASLGRRASFHLE (SEQ ID NO:96)
# T29 sequence: RGFLRSASLGRRASFHLE
# [30] = system: T30, MLK3 peptide HVRRRRGTFKRSKLRARD (SEQ ID NO:76)
# T30 sequence: HVRRRRGTFKRSKLRARD
# [31] = system: T31, ANK1 peptide AQIVKRASLKRGKQ (SEQ ID NO:90)
# T31 sequence: AQIVKRASLKRGKQ
# [32] = system: T32, ARHGAP4 peptide AGPLRKSSLKKGGRL (SEQ ID NO:98)
# T32 sequence: AGPLRKSSLKKGGRL
# [33] = system: T33, AKAP12 peptide AGWRKKTSFRKPKED (SEQ ID NO:99)
# T33 sequence: AGWRKKTSFRKPKED
# [34] = system: T34, PLEK peptide KFARKSTRRSIRLPE (SEQ ID NO:78)
# T34 sequence: KFARKSTRRSIRLPE
# [35] = system: T35, CHRM1 peptide RKIPKRPGSVHRTPSRQ (SEQ ID NO:83)
# T35 sequence: RKIPKRPGSVHRTPSRQ
# [36] = system: T36, ADD2 peptide KKKFRTPSFLKKSKK (SEQ ID NO:95)
# T36 sequence: KKKFRTPSFLKKSKK
# [37] = system: T37, PLEC1 peptide KRERKTSSKSSVRKRR (SEQ ID NO:81)
# T37 sequence: KRERKTSSKSSVRKRR
# [38] = system: T38, MARCKS peptide KKKKKRFSFKKSFKL (SEQ ID NO:80)
# T38 sequence: KKKKKRFSFKKSFKL
Substance,in vitro phosphorylation (% of best substrate) [1],in vitro phosphorylation (% of best substrate) [2],in vitro phosphorylation (% of best substrate) [3],in vitro phosphorylation (% of best substrate) [4],in vitro phosphorylation (% of best substrate) [5],in vitro phosphorylation (% of best substrate) [6],in vitro phosphorylation (% of best substrate) [7],in vitro phosphorylation (% of best substrate) [8],in vitro phosphorylation (% of best substrate) [9],in vitro phosphorylation (% of best substrate) [10],in vitro phosphorylation (% of best substrate) [11],in vitro phosphorylation (% of best substrate) [12],in vitro phosphorylation (% of best substrate) [13],in vitro phosphorylation (% of best substrate) [14],in vitro phosphorylation (% of best substrate) [15],in vitro phosphorylation (% of best substrate) [16],in vitro phosphorylation (% of best substrate) [17],in vitro phosphorylation (% of best substrate) [18],in vitro phosphorylation (% of best substrate) [19],in vitro phosphorylation (% of best substrate) [20],further results
AKT1,3,12,7,1,2,7,9,12,7,10,10,10,6,39,2,1,8,10,1,3,in vitro phosphorylation (% of best substrate) [21]: 9; in vitro phosphorylation (% of best substrate) [22]: 5; in vitro phosphorylation (% of best substrate) [23]: 9; in vitro phosphorylation (% of best substrate) [24]: 12; in vitro phosphorylation (% of best substrate) [25]: 7; in vitro phosphorylation (% of best substrate) [26]: 3; in vitro phosphorylation (% of best substrate) [27]: 2; in vitro phosphorylation (% of best substrate) [28]: 3; in vitro phosphorylation (% of best substrate) [29]: 32; in vitro phosphorylation (% of best substrate) [30]: 100; in vitro phosphorylation (% of best substrate) [31]: 3; in vitro phosphorylation (% of best substrate) [32]: 7; in vitro phosphorylation (% of best substrate) [33]: 6; in vitro phosphorylation (% of best substrate) [34]: 2; in vitro phosphorylation (% of best substrate) [35]: 6; in vitro phosphorylation (% of best substrate) [36]: 9; in vitro phosphorylation (% of best substrate) [37]: 9; in vitro phosphorylation (% of best substrate) [38]: 6
PKA,0,30,3,1,1,1,10,84,64,81,1,63,5,87,18,0,4,3,4,3,in vitro phosphorylation (% of best substrate) [21]: 0; in vitro phosphorylation (% of best substrate) [22]: 3; in vitro phosphorylation (% of best substrate) [23]: 5; in vitro phosphorylation (% of best substrate) [24]: 100; in vitro phosphorylation (% of best substrate) [25]: 3; in vitro phosphorylation (% of best substrate) [26]: 2; in vitro phosphorylation (% of best substrate) [27]: 1; in vitro phosphorylation (% of best substrate) [28]: 2; in vitro phosphorylation (% of best substrate) [29]: 86; in vitro phosphorylation (% of best substrate) [30]: 69; in vitro phosphorylation (% of best substrate) [31]: 3; in vitro phosphorylation (% of best substrate) [32]: 21; in vitro phosphorylation (% of best substrate) [33]: 1; in vitro phosphorylation (% of best substrate) [34]: 5; in vitro phosphorylation (% of best substrate) [35]: 2; in vitro phosphorylation (% of best substrate) [36]: 2; in vitro phosphorylation (% of best substrate) [37]: 2; in vitro phosphorylation (% of best substrate) [38]: 3
